Experimental findings from patent US20080119428A1 (ONCOTHERAPY SCIENCE, published 2008) are described below.

The target of this experiment is T1, EPRS (glutamyl-prolyl tRNA synthetase) (UniProt P07814 1-1512).
T1 construct: Endogenous protein in LC319 cell lysate, identified by MALDI-TOF mass spectrometry as a 180-kDa band; also called 180-kDa band
In words: tandem immunoprecipitation (anti-FLAG M2, then anti-HA) from transfected LC319 lysate, silver-stained SDS-PAGE, MALDI-TOF MS. The procedure:
Cell extracts from lung-cancer cell line LC319 transfected with the plasmids expressing N-terminal FLAG-tagged and C-terminal HA-tagged-pCAGGS-IMS-E21 (URLC8) vector or mock vector (control) were pre-cleared by incubation at 4° C. for 1 hour with 100 μL of protein G-agarose beads in a final volume of 2 ml of IP-buffer (0.5% NP-40, 50 mM Tris-HCl, 150 mM NaCl) in the presence of proteinase inhibitor. After centrifugation at 1000 rpm for 5 min at 4° C., the supernatant was incubated at 4° C. with anti-Flag M2 agarose for 2 hours. The beads were then collected by centrifugation at 5000 rpm for 2 min and washed six times with 1 ml of each immunoprecipitation buffer. Then, the washed beads were eluted by Flag-peptide (Sigma-Aldrich Co., St. Louis, Mo.). The elution was incubated at 4° C. with anti-HA agarose for 2 hours. The washed beads were resuspended in 50 μL of Laemmli sample buffer and boiled for 5 min, and the proteins were separated by 5-10% SDS PAGE gels (BIO RAD). After electrophoresis, the gels were stained with silver. Protein bands specifically found in IMS-E21 (URLC8)- transfected extracts were excised and served for matrix-assisted laser desorption/ionization-time of flight mass spectrometry (MALDI-TOF-MS) analysis (AXIMA-CFR plus, SHIMADZU BIOTECH, Kyoto, Japan). […]

T1 sequence (P07814 whole entry): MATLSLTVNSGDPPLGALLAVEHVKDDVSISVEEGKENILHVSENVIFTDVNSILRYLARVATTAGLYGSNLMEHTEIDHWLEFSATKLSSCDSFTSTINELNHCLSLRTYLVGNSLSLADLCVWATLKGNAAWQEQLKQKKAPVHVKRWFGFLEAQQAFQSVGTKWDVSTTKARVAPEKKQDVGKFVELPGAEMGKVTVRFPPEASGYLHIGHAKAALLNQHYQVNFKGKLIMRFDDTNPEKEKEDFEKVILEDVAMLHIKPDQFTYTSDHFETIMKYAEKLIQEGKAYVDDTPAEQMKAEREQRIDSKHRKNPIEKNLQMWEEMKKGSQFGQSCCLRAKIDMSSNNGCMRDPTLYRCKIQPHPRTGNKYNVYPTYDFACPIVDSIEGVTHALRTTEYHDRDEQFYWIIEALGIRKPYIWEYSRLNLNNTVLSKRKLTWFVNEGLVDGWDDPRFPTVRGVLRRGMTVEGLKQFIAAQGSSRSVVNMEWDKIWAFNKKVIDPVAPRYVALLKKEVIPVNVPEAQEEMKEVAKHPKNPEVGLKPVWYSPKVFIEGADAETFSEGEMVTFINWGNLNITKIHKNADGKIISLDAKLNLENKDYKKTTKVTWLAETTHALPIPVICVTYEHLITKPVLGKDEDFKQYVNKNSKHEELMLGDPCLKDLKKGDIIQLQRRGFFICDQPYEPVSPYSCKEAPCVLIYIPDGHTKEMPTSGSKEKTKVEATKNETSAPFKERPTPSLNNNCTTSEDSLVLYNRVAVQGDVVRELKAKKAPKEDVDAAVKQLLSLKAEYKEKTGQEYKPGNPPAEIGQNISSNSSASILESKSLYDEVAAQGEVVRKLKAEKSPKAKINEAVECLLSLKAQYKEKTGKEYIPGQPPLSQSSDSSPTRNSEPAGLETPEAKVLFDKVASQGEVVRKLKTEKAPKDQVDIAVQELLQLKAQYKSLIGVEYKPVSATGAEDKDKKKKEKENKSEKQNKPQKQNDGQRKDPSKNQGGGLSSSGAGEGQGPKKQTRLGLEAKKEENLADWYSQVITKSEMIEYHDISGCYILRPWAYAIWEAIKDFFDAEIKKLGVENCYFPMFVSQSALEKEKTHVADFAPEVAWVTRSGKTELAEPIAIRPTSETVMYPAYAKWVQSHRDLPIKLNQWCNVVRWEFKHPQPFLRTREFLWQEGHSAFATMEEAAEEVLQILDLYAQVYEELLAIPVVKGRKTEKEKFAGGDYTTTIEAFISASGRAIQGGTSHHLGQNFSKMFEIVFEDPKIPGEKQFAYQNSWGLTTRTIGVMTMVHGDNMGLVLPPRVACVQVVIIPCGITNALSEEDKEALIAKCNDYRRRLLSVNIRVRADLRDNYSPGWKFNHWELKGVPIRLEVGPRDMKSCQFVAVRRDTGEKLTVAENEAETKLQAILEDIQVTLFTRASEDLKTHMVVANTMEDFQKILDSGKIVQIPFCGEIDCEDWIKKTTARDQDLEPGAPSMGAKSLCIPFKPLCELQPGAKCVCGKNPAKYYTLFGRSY

B1: N-terminal FLAG-tagged and C-terminal HA-tagged IMS-E21 (URLC8) (enzyme)
chain: MILNSLSLCYHNKLILAPMVRVGTLPMRLLALDYGADIVYCEELIDLKMIQCKRVVNEVLSTVDFVAPDDRVVFRTCEREQNRVVFQMGTSDAERALAVARLVENDVAGIDVNMGCPKQYSTKGGMGAALLSDPDKIEKILSTLVKGTRRPVTCKIRILPSLEDTLSLVKRIERTGIAAIAVHGRKREERPQHPVSCEVIKAIADTLSIPVIANGGSHDHIQQYSDIEDFRQATAASSVMVARAAMWNPSIFLKEGLRPLEEVMQKYIRYAVQYDNHYTNTKYCLCQMLREQLESPQGRLLHAAQSSREICEAFGLGAFYEETTQELDAQQARLSAKTSEQTGEPAEDTSGVIKMAVKFDRRAYPAQITPKMCLLEWCRREKLAQPVYETVQRPLDRLFSSIVTVAEQKYQSTLWDKSKKLAEQAAAIVCLRSQGLPEGRLGEESPSLHKRKREAPDQDPGGPRAQELAQPGDLCKKPFVALGSGEESPLEGW
notes: Expressed from a pCAGGS vector in transfected LC319 cells; also called FLAG-tagged and HA-tagged-pCAGGS-IMS-E21; not shown: N-terminal FLAG tag; C-terminal HA tag
Turning to B1, the binding result is “binds”.
